Target: F7 protein

B1: Pfu DNA polymerase (α-type DNA polymerase) (protein)
chain: MILDVDYITEEGKPVIRLFKKENGKFKIEHDRTFRPYIYALLRDDSKIEEVKKITGERHGKIVRIVDVEKVEKKFLGKPITVWKLYLEHPQDVPTIREKVREHPAVVDIFEYDIPFAKRYLIDKGLIPMEGEEELKILAFDIETLYHEGEEFGKGPIIMISYADENEAKVITWKNIDLPYVEVVSSEREMIKRFLRIIREKDPDIIVTYNGDSFDFPYLAKRAEKLGIKLTIGRDGSEPKMQRIGDMTAVEVKGRIHFDLYHVITRTINLPTYTLEAVYEAIFGKPKEKVYADEIAKAWESGENLERVAKYSMEDAKATYELGKEFLPMEIQLSRLVGQPLWDVSRSSTGNLVEWFLLRKAYERNEVAPNKPSEEEYQRRLRESYTGGFVKEPEKGLWENIVYLDFRALYPSIIITHNVSPDTLNLEGCKNYDIAPQVGHKFCKDIPGFIPSLLGHLLEERQKIKTKMKETQDPIEKILLDYRQKAIKLLANSFYGYYGYAKARWYCKECAESVTAWGRKYIELVWKELEEKFGFKVLYIDTDGLYATIPGGESEEIKKKALEFVKYINSKLPGLLELEYEGFYKRGFFVTKKRYAVIDEEGKVITRGLEIVRRDWSEIAKETQARVLETILKHGDVEEAVRIVKEVIQKLANYEIPPEKLAIYEQITRPLHEYKAIGPHVAVAKKLAAKGVKIKPGMVIGYIVLRGDGPISNRAILAEEYDPKKHKYDAEYYIENQVLPAVLRILEGFGYRKEDLRYQKTRQVGLTSWLNIKKS
  ratio of the primer extension activity to the incorporation activity, about 320 kilodalton gel filtration fraction (Pfu DNA polymerase-F7 complex); about 76 kilodalton fraction (Pfu DNA polymerase alo): the ratio of 0.65 was obtained for the about 320 kilodalton fraction
